Assay [1] concerns the target T1, glycoprotein of rabies virus strain CVS-11 (rabies virus strain CVS-11, UniProt O92284 20-524).
T1 sequence: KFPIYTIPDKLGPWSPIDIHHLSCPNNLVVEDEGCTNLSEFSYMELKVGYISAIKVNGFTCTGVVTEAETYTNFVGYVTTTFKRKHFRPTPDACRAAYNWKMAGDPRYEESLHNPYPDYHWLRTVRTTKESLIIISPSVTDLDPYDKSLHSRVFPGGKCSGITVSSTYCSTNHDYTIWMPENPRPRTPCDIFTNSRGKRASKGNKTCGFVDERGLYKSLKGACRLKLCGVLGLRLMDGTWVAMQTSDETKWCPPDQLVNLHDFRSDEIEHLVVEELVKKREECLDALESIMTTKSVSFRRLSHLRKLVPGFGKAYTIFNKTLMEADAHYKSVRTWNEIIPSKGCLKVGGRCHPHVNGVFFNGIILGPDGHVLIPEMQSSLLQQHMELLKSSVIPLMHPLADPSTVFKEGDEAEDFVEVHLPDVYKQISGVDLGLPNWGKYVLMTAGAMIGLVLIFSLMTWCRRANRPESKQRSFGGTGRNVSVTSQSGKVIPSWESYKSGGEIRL
The experiment in a line: cell-based or functional assay.

Assay [2] addresses purified rabies virus glycoprotein (rabies virus ERA strain) (rabies virus strain ERA, UniProt P03524 20-524). The assay can be described thus: phage ELISA on coated purified G protein (ERA), anti-M13-HRP.

The record followed here is patent US20070072177A1 (CRUCELL HOLLAND B V, published 2007).

B1: SC04-018 (scFv)
scFv: AMAEVQLVESGPGLVRPSGTLSLTCAVSGGSISSSNWWSWVRQPPGKGLEWIGEIYHSGSTNYNPSLKSRVTISVDKSKNQFSLKLSSVTAADTAVYYCARVSVTTGAFNIWGQGTMVTVSSGTGGSGGTGSGTGGSTQPVLTQPLSASGTPGQRVTISCSGDTSNIGSNTVHWYQRLPGTAPKLLIHNNNQRPSGVPDRFSGAKSGTSASLAISGLQSEDEADYFCAAWDDNLNGYVFGTGTKVTVLGAAA
Take B1: the “Potency (IU/ml)” value in assay [1] was determined as 0.1 IU/ml. Besides, the “OD 492 nm” value in assay [2] is 0.247 OD 492 nm.

B2: SC04-021 (scFv)
scFv: AMAEVQLVESGGGVVQPGRSLRLSCAASGFTFSSYGMHWVRQAPGKGLEWVAVISYDGSSKYYADSVKGRFTISRDNSKNTLYLQMNSLRAEDTAVYYCAKGSVLGDAFDIWGQGTMVTVSSGTGGSGGTGSGTGGSTDIQMTQSPFSLSASVGDRVTITCRASQGIGSSLAWYQQKPGKAPKLLIYAASSLQSGVPSRFSGSGSGTDFTLTISSLQPEDFATYFCLQHHDYPLTFGGGTKLEIKRAAA
Regarding B2, in assay [1], the “Potency (IU/ml)” value is 1.3 IU/ml. Further, in assay [2], the “OD 492 nm” value turned out to be 0.278 OD 492 nm.

B3: SC04-164 (scFv)
scFv: AMAEVQLVESGGGVVQPGRSLRLSCAASGFTFSSYGMHWVRQAPGKGLEWVAVISYDGSSKYYADSVKGRFTISRDNSKNTLYLQMNSLRAEDTAVYYCAKGSVLGDAFDIWGQGTMVTVSSGTGGSGGTGSGTGGSTDIQLTQSPSSVSASVGDRVTITCRASQGISSWLAWYQQKPGKAPKLLIYAASSLQSGVPSRFSGSGSGTDFTLTISSLQPEDFATYYCQQANSFPLTFGGGTKVDIKRAAA
B3: the “Potency (IU/ml)” value in assay [1] came to 0.3 IU/ml. Moreover, in assay [2], the “OD 492 nm” value was found to be 0.547 OD 492 nm.

B4: SC04-038 (scFv)
scFv: AMAQVQLVQSGGGVVQPGRSLRLSCAASGFTFSSYGMHWVRQAPGKGLEWVAVISYDGSSKYYADSVKGRFTISRDNSKNTLYLQMNSLRAEDTAVYYCAKGSVLGDAFDIWGQGTMVTVSSGTGGSGGTGSGTGGSTDIQLTQSPSSVSASVGDRVTITCRASQGISGWLAWYQQKPEKAPKLLIYAASSLQRGVPSRFSGSGSGTDFTLTISSLQPEDFATYYCQQANSFPPTFGQGTRLEIKRAAA
For B4, in assay [1], the “Potency (IU/ml)” value came out at 2 IU/ml. Further, in assay [2], the “OD 492 nm” value is 0.653 OD 492 nm.

B5: SC04-031 (scFv)
scFv: AMAEVQLVESGGGVVQPGRSLRLSCAASGFTFSSYGMHWVRQAPGKGLEWVAVISYDGSNKYYADSVKGRFTISRDNSKNTLYLQMNSLRAEDTAVYYCAKGSVLGDAFDIWGQGTMVTVSSGTGGSGGTGSGTGGSTDIQMTQSPSFVSASVGDRVTITCRASQGISSWLAWYQQKPGKAPKLLIYAASSLQSGVPSRFSGSGSGTDFTLTISSLQPEDFATYYCQQANSFPLTFGGGTKVEIKRAAA
Take B5: in assay [1], the “Potency (IU/ml)” value was determined as 0.7 IU/ml. Moreover, in assay [2], the “OD 492 nm” value was found to be 0.721 OD 492 nm.

B6: SC04-010 (scFv)
scFv: AMAQVQLVQSGGDLVQPGRSLRLSCAASGFTFSSYGMHWVRQAPGKGLEWVADISYDGSNKYYADSVKGRFTISRDNSKNTLYLQMNSLRAEDTAVYYCAKDGLDLTGTIQPFGYWGQGTLVTVSSGTGGSGGTGSGTGGSTDIQMTQSPSSLSASVGDRVTITCRASQGIRNDLGWYQQKPGKAPKLLIYAASSLQSGVPSRFSGSGSGTDFTLTISSLQPEDFATYYCLQDYNYPRTFGQGTKVEIKRAAA
Turning to B6, the “Potency (IU/ml)” value in assay [1] is 4 IU/ml. For the same molecule, in assay [2], the “OD 492 nm” value stood at 0.915 OD 492 nm.

B7: SC04-026 (scFv)
scFv: AMAEVQLVESGAEVKKPGESLKISCKGSGYNFPYSWIAWVRQMPGKGLEWMGIIFPGDSDTRYSPPFQGQVTISADNSKSTAYLQWSSLKASDTAMYYCARTSNWNYLDRFDPWGQGTLVTVSSGTGGSGGTGSGTGGSTDVVMTQSPLSLPVTPGEPASISCRSSQSLLHSNGHDYLDWYVQKPGQSPQPLIYLGSDRASGVPDRFSGSGSGTHFTLNISRVEAEDVGVYYCMQSLQTPWTFGQGTKLEIKRAAA
Turning to B7, in assay [1], the “Potency (IU/ml)” value was 0.3 IU/ml. For the same molecule, in assay [2], the “OD 492 nm” value came to 0.212 OD 492 nm.

B8: SC04-008 (scFv)
scFv: AMAQVTLKESGPTLVKPTQTLTLTCTFSGFSLSTSGVGVGWIRQPPGKALEWLARIDWDDDKYYSTSLKTRLTISKDTSKNQVVLTMTNMDPVDTATYYCARMGFTGTYFDYWGQGTLVTVSSGTGGSGGTGSGTGGSTQAVLTQPSSVSVAPGETASVTCGGDNIGSKSVHWYQKKPGQAPVLVVFDDSDRPSGIPERFSGSTSGNTAALTISRVEAGDEADYYCQVWDSSNDHLYVFGPGTQLTVLSAAA
As to B8, the “Potency (IU/ml)” value in assay [1] was > 54 IU/ml. Besides, in assay [2], the “OD 492 nm” value is 0.582 OD 492 nm.

B9: SC04-073 (scFv)
scFv: AMAQVQLVQSGGGVAQPGRSLRLSCAASGFTFSSYGMHWVRQAPGKGLEWVADISYDGSNKYYADSVKGRFTISRDNSKNTLYLQMNSLRAEDTAVYYCAKDGLDLTGTIQPFGYWGQGTLVTVSSGTGGSGGTGSGTGGSTDIQLTQSPSFLSASVGDRVTITCRASHSISSWLAWYQQKPGKAPKLLIYKASSLESGVPSRFSGSGSGTDFTLTISSLQPEDFATYYCLQDYNYPRTFGQGTKLEIKRAAA
On to B9, for which the “Potency (IU/ml)” value in assay [1] was found to be 3 IU/ml. In assay [2], the “OD 492 nm” value turned out to be 0.657 OD 492 nm.

B10: SC04-060 (scFv)
scFv: AMAQVQLVESGPGLVKASETLSLTCTVSDGSISSFYWSWIRQPPGKGLEWVGEIQDTGRTNYNPSLKSRVTISLDTSKNQFSLTLSSVTAADTAVYYCAREKEKYSDRSGYSYYYYYMDVWGKGTTVTVSSGTGGSGGTGSGTGGSTDIQMTQSPSSLSASVGDRVTITCRASQGISTYLNWYQQKPGKAPNLLIYGASNLQSGVPSRFSGSESGTDFTLTISSLQPEDFATYYCQQSFTTPRTFGQGTKLEIKRAAA
B10: the “Potency (IU/ml)” value in assay [1] worked out at 0.2 IU/ml. Besides, the “OD 492 nm” value in assay [2] is 0.923 OD 492 nm.

B11: scFv SO57 (scFv)
scFv: AMAQVQLVQSGAEVKKPGSSVKVSCKASGGTFNRYTVNWVRQAPGQGLEWMGGIIPIFGTANYAQRFQGRLTITADESTSTAYMELSSLRSDDTAVYFCARENLDNSGTYYYFSGWFDPWGQGTLVTVSSGTGGSGGTGSGTGGSTQSALTQPRSVSGSPGQSVTISCTGTSSDIGGYNFVSWYQQHPGKAPKLMIYDATKRPSGVPDRFSGSKSGNTASLTISGLQAEDEADYYCCSYAGDYTPGVVFGGGTKLTVLGAAA
B11: the “OD 492 nm” value in assay [2] turned out to be 0.65 OD 492 nm.

B12: SC04-001 (scFv)
scFv: AMAEVQLVESGGGVVRPGGSLRLSCAASGFTFDDYGMSWVRQAPGKGLEWVSGINWNGGSTGYADSVKGRFTISRDNAKNSLYLQMNSLRAEDTAVYYCAKGLYGELFDYWGQGTLVTVSRGGGGSGGGGSGGGGSSELTQDPAVSVALGQTVRITCQGDSLRSYYASWYQQKPGQAPVLVIYGKNNRPSGIPDRFSGSSSGNTASLTITGAQAEDEADYYCNSRDSSGNHVVFGGGTKLTVLGAAA
For B12, in assay [1], the “Potency (IU/ml)” value is 1.3 IU/ml. Moreover, the “OD 492 nm” value in assay [2] was 0.828 OD 492 nm.

B13: SC04-040 (scFv)
scFv: AMAQVQLVQSGGGVVQPGRSLRLSCAASGFTFGSYGMHWVRQAPGKGLEWVATIFYDGSYKDYADSVKGRFTISRDNSKNTLYLQMNSLRAEDTAVYYCAKGSKVGDFDYWGQGTLVTVSSGTGGSGGTGSGTGGSTQPVLTQPPSVSVAPGQTARISCGGDNIGTNTVQWYQQKPGQAPVLVVYDDSDRPSGIPERFSGSNSGDTATLTISRVEAGDEADYYCQVWDDSSDLVVFGGGTKVTVLGAAA
Take B13: the “Potency (IU/ml)” value in assay [1] is 0.3 IU/ml. In assay [2], the “OD 492 nm” value came out at 0.74 OD 492 nm.
